The values below are quoted from earlier work in article PMC3642679.

For this data set, the target named is sliding clamp beta (Escherichia coli) (UniProt P0A988).
Sequence of UniProt P0A988 (P0A988 whole entry): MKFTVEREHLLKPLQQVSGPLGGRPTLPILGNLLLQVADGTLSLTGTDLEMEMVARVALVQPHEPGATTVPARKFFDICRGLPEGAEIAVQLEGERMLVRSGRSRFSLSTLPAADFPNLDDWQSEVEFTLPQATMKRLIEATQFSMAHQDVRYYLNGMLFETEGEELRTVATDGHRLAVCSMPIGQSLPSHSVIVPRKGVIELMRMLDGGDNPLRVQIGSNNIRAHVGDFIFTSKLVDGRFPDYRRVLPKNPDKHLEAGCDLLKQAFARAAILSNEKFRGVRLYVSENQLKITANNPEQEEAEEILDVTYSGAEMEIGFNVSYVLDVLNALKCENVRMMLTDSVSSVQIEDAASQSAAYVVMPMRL

A word on the Kd: it is the concentration at which binding is half-saturated. As to Pol III alpha (from UniProt P10443), the Kd is 1000 nM.
